The source of these data is publication PMC4475429 (2015).

In this experiment the target is PKA RIα (Homo sapiens, UniProt P10644). As to the kind of experiment: fluorescence polarization competition vs RI-STAD-3. (In general: Fluorescence polarisation rises when a labelled molecule tumbles more slowly, as on binding a larger partner.)
Chain of PKA RIα (P10644 whole entry): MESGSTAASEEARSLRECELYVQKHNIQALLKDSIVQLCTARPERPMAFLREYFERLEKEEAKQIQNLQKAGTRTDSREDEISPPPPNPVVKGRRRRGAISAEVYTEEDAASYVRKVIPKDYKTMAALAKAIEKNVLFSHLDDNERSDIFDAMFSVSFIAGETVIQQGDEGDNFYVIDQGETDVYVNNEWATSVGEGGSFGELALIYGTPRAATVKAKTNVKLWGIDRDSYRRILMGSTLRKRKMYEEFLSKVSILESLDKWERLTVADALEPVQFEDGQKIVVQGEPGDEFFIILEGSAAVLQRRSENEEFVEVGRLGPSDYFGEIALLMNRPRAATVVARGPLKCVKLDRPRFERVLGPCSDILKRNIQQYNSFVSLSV

B1: Ht31 AKB (peptide)
chain: WKNVLQGGESTKERFENSNIGTA
Take B1: the concentration for half-maximal inhibition (IC50) was 1500 nM.

As usually defined, the IC50 is the concentration at which inhibition is half-maximal. Read a high IC50 as weaker potency.
